In PMC7617879:
pKi: −log10 of the molar value.

Biological target: catalytic domain of MMP-14 (MMP-14CAT) (human)
Assay: enzyme inhibition assay

wild-type N-terminal domain of TIMP2 (N-TIMP2) (domain or fragment)
pKi: 9.12
